{"source": "patent US20250136688A1", "about": "(Janssen / Centocor, published 2025)", "binders": {"B1": {"name": "NPP3B815 (NPP3B56×CD3B2030-N106A-spFv) (bispecific antibody, human IgG1, kappa, L234A L235A)", "chain": "EIVLTQSPATLSASPGERVTLSCSASSSVSYMNWYQQKPGCAPRRWIYDSSKLASGVPARFSGSGSGRDYTLTISSLEPEDFAVYYCQQWSRNPPTFGGGTKVEIKGGGSGGSGGCPPCGGSGGQVQLVQSGAEVKKPGSSVKVSCKASGYTFTRSTMHWVKQAPGQGLEWIGYINPSSAYTNYNQKFQGRVTLTADKSTSTAYMELSSLRSEDTAVYYCASPQVHYDYAGFPYWGCGTLVTVSSEPKSSDKTHTCPPCPAPEAAGGPSVFLFPPKPKDTLMISRTPEVTCVVVSVSHEDPEVKFNWYVDGVEVHNAKTKPREEQYNSTYRVVSVLTVLHQDWLNGKEYKCKVSNKALPAPIEKTISKAKGQPREPQVYTLPPSREEMTKNQVSLWCLVKGFYPSDIAVEWESNGQPENNYKTTPPVLDSDGSFFLYSKLTVDKSRWQQGNVFSCSVMHEALHNHYTQKSLSLSPGK", "heavy": "EVQLVESGGGRVKPGGSLRLSCAASGFTFSDYSMNWVRQAPGKGLEWVSSISSISSYVKYADSVKGRFTMSRDNAKNSLFLQMNSLRDEDMAVYYCARGHYFDYWGQGTLVTVSSASTKGPSVFPLAPSSKSTSGGTAALGCLVKDYFPEPVTVSWNSGALTSGVHTFPAVLQSSGLYSLSSVVTVPSSSLGTQTYICNVNHKPSNTKVDKKVEPKSCDKTHTCPPCPAPEAAGGPSVFLFPPKPKDTLMISRTPEVTCVVVSVSHEDPEVKFNWYVDGVEVHNAKTKPREEQYNSTYRVVSVLTVLHQDWLNGKEYKCKVSNKALPAPIEKTISKAKGQPREPQVYTLPPSREEMTKNQVSLSCAVKGFYPSDIAVEWESNGQPENNYKTTPPVLDSDGSFFLVSKLTVDKSRWQQGNVFSCSVMHEALHNRFTQKSLSLSPGK", "light": "not shown", "notes": "Heavy Chain 1 = anti-CD3 spFv-Fc (knob); Heavy Chain 2 and Light Chain = anti-ENPP3 Fab arm NPP3B56 (hole); IgG1 with L234A, L235A, D265S; also called ENPP3×CD3"}}, "key": {"[1]": {"molecular_target": "T1, ectonucleotide pyrophosphatase/phosphodiesterase family member 3 (ENPP3) (human, UniProt O14638 1-875)", "T1 construct": "whole, on cells; also called CD203c", "T1 sequence (looked up)": "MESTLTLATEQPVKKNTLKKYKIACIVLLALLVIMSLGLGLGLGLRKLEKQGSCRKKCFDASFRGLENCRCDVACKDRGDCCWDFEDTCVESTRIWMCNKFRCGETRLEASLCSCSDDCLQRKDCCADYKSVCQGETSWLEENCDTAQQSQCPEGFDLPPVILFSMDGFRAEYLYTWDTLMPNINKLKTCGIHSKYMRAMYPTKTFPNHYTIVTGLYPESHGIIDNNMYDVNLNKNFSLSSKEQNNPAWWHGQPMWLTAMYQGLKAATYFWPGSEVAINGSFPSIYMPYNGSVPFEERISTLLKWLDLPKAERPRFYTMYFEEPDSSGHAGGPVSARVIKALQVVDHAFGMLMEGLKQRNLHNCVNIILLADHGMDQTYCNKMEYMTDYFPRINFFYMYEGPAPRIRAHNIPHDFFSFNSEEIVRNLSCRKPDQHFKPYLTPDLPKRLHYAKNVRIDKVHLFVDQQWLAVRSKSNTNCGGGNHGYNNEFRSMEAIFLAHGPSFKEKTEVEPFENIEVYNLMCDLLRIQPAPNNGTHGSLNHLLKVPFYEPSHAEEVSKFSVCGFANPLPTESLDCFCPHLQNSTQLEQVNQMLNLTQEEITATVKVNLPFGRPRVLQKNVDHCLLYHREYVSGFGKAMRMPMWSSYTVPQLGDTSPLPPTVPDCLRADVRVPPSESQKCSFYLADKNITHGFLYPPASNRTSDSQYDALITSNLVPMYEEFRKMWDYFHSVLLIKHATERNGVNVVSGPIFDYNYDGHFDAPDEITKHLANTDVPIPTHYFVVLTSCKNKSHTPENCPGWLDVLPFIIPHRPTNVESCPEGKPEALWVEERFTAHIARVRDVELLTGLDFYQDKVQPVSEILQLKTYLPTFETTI", "experiment": "flow cytometry on VMRCRCW cells"}, "Human CD3 epsilon [2]": {"molecular_target": "T2, Human CD3 epsilon (human, UniProt P07766 23-207)", "T2 construct": "Stood on human T cells (pan-T cells, isolated donor T cells) as part of the TCR/CD3 complex; the other chains of the complex are not written here; also called CD3ε; CD3R", "T2 sequence (P07766 23-207 limits assumed)": "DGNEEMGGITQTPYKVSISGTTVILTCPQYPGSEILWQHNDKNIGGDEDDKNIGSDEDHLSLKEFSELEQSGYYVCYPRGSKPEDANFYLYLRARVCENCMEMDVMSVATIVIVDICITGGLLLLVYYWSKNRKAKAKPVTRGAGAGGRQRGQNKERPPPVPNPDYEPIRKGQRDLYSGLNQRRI", "experiment": "flow cytometry on T cells of healthy human donor 110042496"}, "[3]": {"molecular_target": "T1, ectonucleotide …", "experiment": "cell-based or functional assay"}, "[4]": {"molecular_target": "T3, ectonucleotide pyrophosphatase/phosphodiesterase family member 1 (ENPP1) (human, UniProt P22413 1-925)", "T3 construct": "whole, on cells", "T3 sequence (looked up)": "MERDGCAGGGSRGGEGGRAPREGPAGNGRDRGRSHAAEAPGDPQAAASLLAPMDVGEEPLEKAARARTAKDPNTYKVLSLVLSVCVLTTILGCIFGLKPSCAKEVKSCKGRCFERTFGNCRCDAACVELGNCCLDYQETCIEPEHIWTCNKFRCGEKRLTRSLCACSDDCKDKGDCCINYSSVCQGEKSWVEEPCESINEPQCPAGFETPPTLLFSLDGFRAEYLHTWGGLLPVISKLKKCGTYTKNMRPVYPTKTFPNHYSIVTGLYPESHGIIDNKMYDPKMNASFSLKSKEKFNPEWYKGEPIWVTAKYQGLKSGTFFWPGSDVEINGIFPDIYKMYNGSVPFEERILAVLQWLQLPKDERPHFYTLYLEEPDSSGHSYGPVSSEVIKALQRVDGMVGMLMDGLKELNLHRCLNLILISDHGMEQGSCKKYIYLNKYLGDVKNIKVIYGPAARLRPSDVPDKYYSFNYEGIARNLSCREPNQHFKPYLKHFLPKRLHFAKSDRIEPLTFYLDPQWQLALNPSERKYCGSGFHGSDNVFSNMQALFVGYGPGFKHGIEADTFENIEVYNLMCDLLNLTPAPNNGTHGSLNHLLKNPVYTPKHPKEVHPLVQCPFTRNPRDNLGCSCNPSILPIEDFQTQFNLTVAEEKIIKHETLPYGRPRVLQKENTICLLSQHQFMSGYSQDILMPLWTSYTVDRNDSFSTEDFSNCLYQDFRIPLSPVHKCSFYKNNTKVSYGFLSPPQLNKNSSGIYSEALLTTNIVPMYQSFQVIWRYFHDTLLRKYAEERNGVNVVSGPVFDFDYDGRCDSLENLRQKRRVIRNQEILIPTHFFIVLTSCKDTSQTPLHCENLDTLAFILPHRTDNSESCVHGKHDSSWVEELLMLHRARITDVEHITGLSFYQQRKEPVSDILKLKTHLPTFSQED", "experiment": "flow cytometry on CHOK1 cells overexpressing ENPP1"}, "[5]": {"molecular_target": "ectonucleotide pyrophosphatase/phosphodiesterase family member 2 (ENPP2) (human, UniProt Q13822 36-863)", "experiment": "flow cytometry on CHOK1 cells overexpressing ENPP2"}, "Human CD3 epsilon [6]": {"molecular_target": "T2, Human CD3 epsilon", "experiment": "flow cytometry on T cells of healthy human donor 110048457"}, "Human CD3 epsilon [7]": {"molecular_target": "T2, Human CD3 epsilon", "experiment": "flow cytometry on T cells, average of 6 healthy human donors"}, "Human CD3 epsilon [8]": {"molecular_target": "T2, Human CD3 epsilon", "experiment": "flow cytometry on T cells of healthy human donor 888668965"}, "Human CD3 epsilon [9]": {"molecular_target": "T2, Human CD3 epsilon", "experiment": "flow cytometry on T cells of healthy human donor 110040278"}, "[10]": {"molecular_target": "T1, ectonucleotide …", "experiment": "cell-based or functional assay", "remark": "listed apart in the source"}}, "data": [{"binder": "B1", "values": [{"measurement": "EC50", "setting": "[1]", "result": 0.5, "unit": "nM"}, {"measurement": "EC50", "setting": "Human CD3 epsilon [2]", "result": 147, "unit": "nM"}, {"measurement": "T-cell activation (Flow Cytometry) EC50, A704", "setting": "[3]", "result": 0.011, "unit": "nM"}, {"measurement": "T-cell activation (Flow Cytometry) EC50, HepG2", "setting": "[3]", "result": 0.041, "unit": "nM"}, {"measurement": "T-cell activation (Flow Cytometry) EC50, VMRCRCW", "setting": "[3]", "result": 0.018, "unit": "nM"}, {"measurement": "Tumor cell killing (Incucyte) EC50, A704", "setting": "[3]", "result": 0.03, "unit": "nM"}, {"measurement": "Tumor cell killing (Incucyte) EC50, HepG2", "setting": "[3]", "result": 0.53, "unit": "nM"}, {"measurement": "Tumor cell killing (Incucyte) EC50, TUHR4TKB", "setting": "[3]", "result": 0.05, "unit": "nM"}, {"measurement": "Tumor cell killing (Incucyte) EC50, TUHR10TKB", "setting": "[3]", "result": 0.02, "unit": "nM"}, {"measurement": "Tumor cell killing (Incucyte) EC50, VMRCRCW", "setting": "[3]", "result": 0.13, "unit": "nM"}, {"measurement": "binding result", "setting": "[4]", "result": "no binding"}, {"measurement": "binding result", "setting": "[5]", "result": "no binding"}, {"measurement": "EC50", "setting": "Human CD3 epsilon [6]", "result": 132, "unit": "nM"}, {"measurement": "EC50", "setting": "Human CD3 epsilon [7]", "result": 177, "unit": "nM"}, {"measurement": "EC50", "setting": "Human CD3 epsilon [8]", "result": 197, "unit": "nM"}, {"measurement": "EC50", "setting": "Human CD3 epsilon [9]", "result": 253, "unit": "nM"}, {"measurement": "killing EC50 with PBMCs, A704, donor 110040278, E:T 3:1", "setting": "[10]", "result": 0.052, "unit": "nM"}, {"measurement": "killing EC50 with PBMCs, A704, donor 110040278, E:T 5:1", "setting": "[10]", "result": 0.028, "unit": "nM"}, {"measurement": "killing EC50 with PBMCs, A704, donor 110042496, E:T 3:1", "setting": "[10]", "result": 0.097, "unit": "nM"}, {"measurement": "killing EC50 with PBMCs, A704, donor 110042496, E:T 5:1", "setting": "[10]", "result": 0.061, "unit": "nM"}, {"measurement": "killing EC50 with PBMCs, A704, donor 110042593, E:T 1:1", "setting": "[10]", "result": 0.124, "unit": "nM"}, {"measurement": "killing EC50 with PBMCs, A704, donor 110042593, E:T 3:1", "setting": "[10]", "result": 0.039, "unit": "nM"}, {"measurement": "killing EC50 with PBMCs, A704, donor 110042593, E:T 5:1", "setting": "[10]", "result": 0.015, "unit": "nM"}, {"measurement": "killing EC50 with PBMCs, A704, donor 110044049, E:T 1:1", "setting": "[10]", "result": 0.131, "unit": "nM"}, {"measurement": "killing EC50 with PBMCs, A704, donor 110044049, E:T 3:1", "setting": "[10]", "result": 0.052, "unit": "nM"}, {"measurement": "killing EC50 with PBMCs, A704, donor 110044049, E:T 5:1", "setting": "[10]", "result": 0.016, "unit": "nM"}, {"measurement": "killing EC50 with PBMCs, A704, donor 110048457, E:T 3:1", "setting": "[10]", "result": 0.046, "unit": "nM"}, {"measurement": "killing EC50 with PBMCs, A704, donor 110048457, E:T 5:1", "setting": "[10]", "result": 0.013, "unit": "nM"}, {"measurement": "killing EC50 with PBMCs, A704, donor 888668965, E:T 1:1", "setting": "[10]", "result": 0.107, "unit": "nM"}, {"measurement": "killing EC50 with PBMCs, A704, donor 888668965, E:T 3:1", "setting": "[10]", "result": 0.036, "unit": "nM"}, {"measurement": "killing EC50 with PBMCs, A704, donor 888668965, E:T 5:1", "setting": "[10]", "result": 0.015, "unit": "nM"}, {"measurement": "killing EC50 with PBMCs, VMRCRCW, donor 110040278, E:T 5:1", "setting": "[10]", "result": 0.033, "unit": "nM"}, {"measurement": "killing EC50 with PBMCs, VMRCRCW, donor 110042496, E:T 5:1", "setting": "[10]", "result": 0.065, "unit": "nM"}, {"measurement": "killing EC50 with PBMCs, VMRCRCW, donor 110042593, E:T 5:1", "setting": "[10]", "result": 0.033, "unit": "nM"}, {"measurement": "killing EC50 with PBMCs, VMRCRCW, donor 110044049, E:T 5:1", "setting": "[10]", "result": 0.051, "unit": "nM"}, {"measurement": "killing EC50 with PBMCs, VMRCRCW, donor 110048457, E:T 5:1", "setting": "[10]", "result": 0.063, "unit": "nM"}, {"measurement": "killing EC50 with PBMCs, VMRCRCW, donor 888668965, E:T 5:1", "setting": "[10]", "result": 0.062, "unit": "nM"}]}]}
